Where two headings read alike, the source gives them in different places.
Assays:
LcPol θ-pol [1] = test system: T1, LcPol θ-pol; test: steady-state primer extension, denaturing PAGE of 6-FAM hairpin DNA; format: biochemical, Lates calcarifer; settings: 1 μM hairpin DNA HP [3,9], 1 nM enzyme, 5 mM MgCl2, 100 mM KCl, pH 7.6, 37 °C; read-out: KM, dATP
T1 construct: gene polq; C-terminal polymerase domain (pseudo-exonuclease, thumb, finger, palm), residues 1950-2714 of 2714; synthetic gene in pETsumo2; His6-SUMO tag removed by SENP2; E. coli Rosetta2 (DE3); mainly monomeric

LcPol θ-pol [2] = test system: T1, LcPol θ-pol; test: as above; format: biochemical, Lates calcarifer; settings: Δloop2_b (ΔV2405–R2448); 1 μM hairpin DNA HP [3,9], 200 nM enzyme, 5 mM MgCl2, 100 mM KCl, pH 7.6, 37 °C; read-out: KM, dATP
LcPol theta-pol WT [3] = target: T2, LcPol theta-pol WT (Lates calcarifer, UniProt PDB:8EFK_1 1-864); test: EMSA; 2.5 mM EDTA, no dNTP; EMSA: 10 nM HP [3,9], 25 mM HEPES pH 8.0, 100 mM KCl, 3 mM DTT, 100 ug/ml BSA, 10% glycerol, 2.5 mM EDTA, 0.01% NP40, on ice 20 min; 6% native PAGE, Tris-glycine; Hill fit; settings: protein: recombinant; tags: His6-SUMO, removed by SENP2; label: 5' 6-FAM; hairpin, 3-bp stem, 9-nt dT loop, 5' overhang 8 nt
T2 sequence (chain, as listed by the source): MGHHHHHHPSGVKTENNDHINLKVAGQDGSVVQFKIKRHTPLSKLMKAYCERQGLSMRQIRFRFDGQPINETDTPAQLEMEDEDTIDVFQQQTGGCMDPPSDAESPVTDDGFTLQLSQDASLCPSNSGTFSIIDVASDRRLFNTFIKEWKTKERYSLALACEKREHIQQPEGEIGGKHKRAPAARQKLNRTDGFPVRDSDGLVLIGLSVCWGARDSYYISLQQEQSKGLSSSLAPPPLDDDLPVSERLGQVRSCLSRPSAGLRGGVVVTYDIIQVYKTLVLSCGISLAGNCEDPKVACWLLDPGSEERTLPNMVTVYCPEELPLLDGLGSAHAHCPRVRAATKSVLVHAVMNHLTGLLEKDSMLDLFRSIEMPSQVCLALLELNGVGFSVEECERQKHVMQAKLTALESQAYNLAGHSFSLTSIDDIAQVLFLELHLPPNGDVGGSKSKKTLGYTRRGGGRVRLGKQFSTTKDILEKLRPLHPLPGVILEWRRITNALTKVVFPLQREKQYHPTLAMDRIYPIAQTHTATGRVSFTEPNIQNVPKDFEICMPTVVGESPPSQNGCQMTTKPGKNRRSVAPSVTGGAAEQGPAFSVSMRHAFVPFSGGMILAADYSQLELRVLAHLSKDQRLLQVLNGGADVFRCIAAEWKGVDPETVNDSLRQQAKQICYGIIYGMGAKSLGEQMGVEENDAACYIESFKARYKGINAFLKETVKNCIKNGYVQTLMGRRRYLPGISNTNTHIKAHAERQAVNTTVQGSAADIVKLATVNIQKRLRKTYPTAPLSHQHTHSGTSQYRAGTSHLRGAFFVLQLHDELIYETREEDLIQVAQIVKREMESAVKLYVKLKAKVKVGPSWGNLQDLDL

LcPol theta-pol Δloop1 = LcPol theta-pol Δloop1 (Lates calcarifer, UniProt PDB:8EFK_1 1-864, del443-461); test: as above; settings: protein: recombinant; tags: His6-SUMO, removed by SENP2; label: 5' 6-FAM; hairpin, 3-bp stem, 9-nt dT loop, 5' overhang 8 nt
LcPol theta-pol Δloop1, sequence (chain, as listed by the source del443-461 | mutant): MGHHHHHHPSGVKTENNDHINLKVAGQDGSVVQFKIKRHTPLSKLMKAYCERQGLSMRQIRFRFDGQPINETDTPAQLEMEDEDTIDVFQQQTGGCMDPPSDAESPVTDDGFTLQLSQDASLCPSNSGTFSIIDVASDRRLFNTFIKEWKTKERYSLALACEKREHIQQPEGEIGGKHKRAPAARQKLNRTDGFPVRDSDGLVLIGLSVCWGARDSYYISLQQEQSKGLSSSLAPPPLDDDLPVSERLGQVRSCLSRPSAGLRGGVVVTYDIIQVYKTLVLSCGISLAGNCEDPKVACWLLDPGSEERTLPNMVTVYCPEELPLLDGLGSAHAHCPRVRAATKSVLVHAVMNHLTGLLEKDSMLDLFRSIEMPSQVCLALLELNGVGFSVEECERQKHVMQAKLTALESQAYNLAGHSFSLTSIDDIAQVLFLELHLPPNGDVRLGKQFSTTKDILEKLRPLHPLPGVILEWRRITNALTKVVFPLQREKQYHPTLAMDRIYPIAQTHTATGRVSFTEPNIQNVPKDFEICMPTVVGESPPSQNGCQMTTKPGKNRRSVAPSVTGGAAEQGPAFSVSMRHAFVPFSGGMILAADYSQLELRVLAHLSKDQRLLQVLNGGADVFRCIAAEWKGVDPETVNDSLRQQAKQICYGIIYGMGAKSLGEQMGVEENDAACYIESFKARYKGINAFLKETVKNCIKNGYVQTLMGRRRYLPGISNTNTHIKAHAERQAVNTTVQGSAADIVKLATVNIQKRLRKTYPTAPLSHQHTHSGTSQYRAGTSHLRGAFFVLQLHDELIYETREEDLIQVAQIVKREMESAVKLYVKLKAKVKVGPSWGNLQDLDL

[4] = target: LcPol theta-pol K2299A/K2300A/R2306A/R2307A (Lates calcarifer, UniProt PDB:8EFK_1 1-864, K449A;K450A;R456A;R457A); test: as above; settings: protein: recombinant; tags: His6-SUMO, removed by SENP2; label: 5' 6-FAM; hairpin, 3-bp stem, 9-nt dT loop, 5' overhang 8 nt
LcPol theta-pol K2299A/K2300A/R2306A/R2307A, sequence (chain, as listed by the source with the stated changes): as the sequence (chain, as listed by the source) above, with K449A, K450A, R456A, R457A counted along it

LcPol theta-pol Δloop2_b = LcPol theta-pol Δloop2_b (Lates calcarifer, UniProt PDB:8EFK_1 1-864, del555-598); test: EMSA; 2.5 mM EDTA; Kd comparable to WT; EMSA: 10 nM HP [3,9], 25 mM HEPES pH 8.0, 100 mM KCl, 3 mM DTT, 100 ug/ml BSA, 10% glycerol, 2.5 mM EDTA, 0.01% NP40, on ice 20 min; 6% native PAGE, Tris-glycine; Hill fit; settings: protein: recombinant; tags: His6-SUMO, removed by SENP2; label: 5' 6-FAM; hairpin, 3-bp stem, 9-nt dT loop, 5' overhang 8 nt
LcPol theta-pol Δloop2_b, sequence (chain, as listed by the source del555-598 | mutant): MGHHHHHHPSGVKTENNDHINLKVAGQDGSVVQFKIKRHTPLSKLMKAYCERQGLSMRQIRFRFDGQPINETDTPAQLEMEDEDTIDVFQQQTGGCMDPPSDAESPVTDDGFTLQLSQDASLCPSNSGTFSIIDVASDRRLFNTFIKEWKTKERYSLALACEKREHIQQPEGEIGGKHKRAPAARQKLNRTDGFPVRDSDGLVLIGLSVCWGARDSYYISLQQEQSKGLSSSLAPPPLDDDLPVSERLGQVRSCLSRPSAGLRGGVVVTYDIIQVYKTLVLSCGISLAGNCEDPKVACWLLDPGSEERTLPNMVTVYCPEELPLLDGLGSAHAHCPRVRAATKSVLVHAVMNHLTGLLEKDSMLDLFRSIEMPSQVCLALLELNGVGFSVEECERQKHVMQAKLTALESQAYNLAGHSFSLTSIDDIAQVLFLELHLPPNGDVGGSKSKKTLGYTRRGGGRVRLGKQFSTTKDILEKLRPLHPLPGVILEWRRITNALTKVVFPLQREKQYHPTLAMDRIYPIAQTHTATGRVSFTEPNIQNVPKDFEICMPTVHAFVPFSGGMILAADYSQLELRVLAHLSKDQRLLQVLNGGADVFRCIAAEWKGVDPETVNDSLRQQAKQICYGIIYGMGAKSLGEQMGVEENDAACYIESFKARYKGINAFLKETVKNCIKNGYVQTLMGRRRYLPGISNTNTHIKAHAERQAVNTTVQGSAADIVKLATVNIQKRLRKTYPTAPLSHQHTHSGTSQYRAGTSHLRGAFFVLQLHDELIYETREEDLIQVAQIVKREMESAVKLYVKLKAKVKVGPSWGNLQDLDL

LcPol theta-pol Δloop2_a = LcPol theta-pol Δloop2_a (Lates calcarifer, UniProt PDB:8EFK_1 1-864, del552-591); test: as above; settings: protein: recombinant; tags: His6-SUMO, removed by SENP2; label: 5' 6-FAM; hairpin, 3-bp stem, 9-nt dT loop, 5' overhang 8 nt
LcPol theta-pol Δloop2_a, sequence (chain, as listed by the source del552-591 | mutant): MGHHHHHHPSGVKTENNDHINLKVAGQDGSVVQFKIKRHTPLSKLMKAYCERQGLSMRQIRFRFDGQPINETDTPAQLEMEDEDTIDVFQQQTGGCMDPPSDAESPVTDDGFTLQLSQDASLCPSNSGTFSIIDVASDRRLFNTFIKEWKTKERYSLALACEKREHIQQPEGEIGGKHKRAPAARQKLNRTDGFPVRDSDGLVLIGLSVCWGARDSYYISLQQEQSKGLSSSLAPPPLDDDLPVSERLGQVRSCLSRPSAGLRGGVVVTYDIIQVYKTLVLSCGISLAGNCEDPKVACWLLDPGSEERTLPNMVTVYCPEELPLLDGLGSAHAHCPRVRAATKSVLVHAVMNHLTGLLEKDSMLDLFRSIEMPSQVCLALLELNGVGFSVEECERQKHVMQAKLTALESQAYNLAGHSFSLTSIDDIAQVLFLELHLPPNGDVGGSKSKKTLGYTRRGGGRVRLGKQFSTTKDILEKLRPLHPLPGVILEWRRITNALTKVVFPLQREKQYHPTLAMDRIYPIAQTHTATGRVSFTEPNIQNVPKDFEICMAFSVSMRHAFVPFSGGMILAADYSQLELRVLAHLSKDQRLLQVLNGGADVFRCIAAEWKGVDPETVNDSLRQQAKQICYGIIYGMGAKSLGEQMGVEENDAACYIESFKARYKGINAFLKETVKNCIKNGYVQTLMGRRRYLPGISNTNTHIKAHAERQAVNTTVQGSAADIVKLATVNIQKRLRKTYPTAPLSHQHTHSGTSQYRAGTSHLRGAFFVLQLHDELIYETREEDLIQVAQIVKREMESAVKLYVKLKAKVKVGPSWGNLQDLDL

LcPol theta-pol R2448A = LcPol theta-pol R2448A (Lates calcarifer, UniProt PDB:8EFK_1 1-864, R598A); test: as above; settings: protein: recombinant; tags: His6-SUMO, removed by SENP2; label: 5' 6-FAM; hairpin, 3-bp stem, 9-nt dT loop, 5' overhang 8 nt
LcPol theta-pol R2448A, sequence (chain, as listed by the source R598A | R2448A R2448A): as the sequence (chain, as listed by the source) above, with R598A counted along it

[5] = target: LcPol theta-pol K2299A/K2300A (Lates calcarifer, UniProt PDB:8EFK_1 1-864, K449A;K450A); test: EMSA; 2.5 mM EDTA; affinity similar to WT; EMSA: 10 nM HP [3,9], 25 mM HEPES pH 8.0, 100 mM KCl, 3 mM DTT, 100 ug/ml BSA, 10% glycerol, 2.5 mM EDTA, 0.01% NP40, on ice 20 min; 6% native PAGE, Tris-glycine; Hill fit; settings: protein: recombinant; tags: His6-SUMO, removed by SENP2; label: 5' 6-FAM; hairpin, 3-bp stem, 9-nt dT loop, 5' overhang 8 nt
LcPol theta-pol K2299A/K2300A, sequence (chain, as listed by the source K449A;K450A | K2299A K2300A K2299A K2300A): as the sequence (chain, as listed by the source) above, with K449A, K450A counted along it

[6] = target: LcPol theta-pol R2306A/R2307A (Lates calcarifer, UniProt PDB:8EFK_1 1-864, R456A;R457A); test: as above; settings: protein: recombinant; tags: His6-SUMO, removed by SENP2; label: 5' 6-FAM; hairpin, 3-bp stem, 9-nt dT loop, 5' overhang 8 nt
LcPol theta-pol R2306A/R2307A, sequence (chain, as listed by the source R456A;R457A | R2306A R2307A R2306A R2307A): as the sequence (chain, as listed by the source) above, with R456A, R457A counted along it

LcPol theta-pol WT [7] = target: T2, LcPol theta-pol WT; test: cryo-EM; dGTP, Mg2+; complex Ia, 2.4 A, 11 bp visible; EMSA: 10 nM HP [3,9], 25 mM HEPES pH 8.0, 100 mM KCl, 3 mM DTT, 100 ug/ml BSA, 10% glycerol, 2.5 mM EDTA, 0.01% NP40, on ice 20 min; 6% native PAGE, Tris-glycine; Hill fit; settings: protein: recombinant; tags: His6-SUMO, removed by SENP2; primer/template, 20 bp, template 5' overhang 9 nt

For Nc1ncnc2c1ncn2[C@H]1C[C@H](O)[C@@H](COP(=O)(O)OP(=O)(O)OP(=O)(O)O)O1 [dATP], which Km (LcPol θ-pol [1]) is on record?
Its Km is 12 µM.

And the Km (LcPol θ-pol [2])?
The Km was 157 µM.

B1: HP [3,9] (structured_DNA)
DNA: TTTTTTTTGGCTTTTTTTTTGCC
With B1 as the molecule, how does the Kd (LcPol theta-pol WT [3]) read?
Its Kd is 29 nM.

What about the Kd (LcPol theta-pol Δloop1) of the same molecule?
The Kd was 138 nM.

And the Kd [4]?
Its Kd is 50 nM.

Does B1 bind (LcPol theta-pol Δloop2_b)?
Result: binds

Does B1 bind (LcPol theta-pol Δloop2_a)?
Result: binds

Does B1 bind (LcPol theta-pol R2448A)?
Result: binds

Does B1 bind [5]?
Result: binds

Does B1 bind [6]?
Result: binds

B2: 20/29 mer dsDNA, ddA-terminated primer (dsDNA)
DNA 1: TGCTGTGAGGCATCCGTAGA
DNA 2: GCAGTCAGCTCTACGGATGCCTCACAGCA
modifications: 3'-terminal dideoxy-A on primer
Does B2 bind (LcPol theta-pol WT [7])?
Result: binds

Reference: PMC9841435, “Structural basis of DNA polymerase θ mediated DNA end joining” (Nucleic Acids Research, 2022)
